These results are taken from publication PMC9606073 (Immunity, 2022).

Conditions in all cases: both partners purified
The target in one assay is T1, Yun11-CoV RBD (Bat coronavirus Cp/Yunnan2011 (Yun11), UniProt R9QTH3).
T1 construct: source: Expi293F cells, transient transfection, purified (Ni-NTA, SEC)
The assay can be described thus: ELISA.

Another assay deals with T2, Rf1-CoV RBD (Bat SARS CoV Rf1/2004, UniProt Q0QDZ0).
T2 construct: source: Expi293F cells, transient transfection, purified (Ni-NTA, SEC)
The experiment in a line: ELISA.

Assay [1] has as its target SARS-CoV-2 WA1 RBD (SARS-CoV-2 USA-WA1/2020 (MT246667.1)). The experiment in a line: ELISA.
The target is the same in assay [2]. The experiment in a line: SPR.
The target of assay [3] is SARS-CoV-2 RBD (residues 323-528) (SARS-CoV-2 WA1). The assay can be described thus: crystal structure.

B1: M8a-31 IgG (antibody, V domains shown)
VH: EVQLKQSVAELVRPGASVKVSCTASGFNIKNIYMHWVKQRPEQGLDWIGRIDPANGNSRYAPKFQDKATITADTSSNTAYLQLSSLTSEDTAIYYCADEGWGFANWGQGTLVTVSA
VL: DIVMTQSPSSLTVTAGEKVTMSCKSSQSLLNSGNQKNYLTWYQQKVGQPPKLLIYWASTRDPGVPDRFTGSGFGTDFTLTISSVQAEDLAVYYCQNDYSYPLTFGAGTKVELK
notes: copies: 2 + 2
Take B1: the binding result with Yun11-CoV RBD, with Rf1-CoV RBD and with SARS-CoV-2 WA1 RBD [1] was “binds” each time.

B2: C118 IgG (antibody, V domains shown)
VH: QVQLVESGGGVVQPGRSLRLSCAASGFTFSNYAMHWVRQAPGKGLEWVAVISYDGSNKYYADSVKGRFTISRDNSKNTLYLQMNSLRAEDTAIYYCASGYTGYDYFVRGDYYGLDVWGQGTTVTVSS
VL: QPVLTQSPSASASLGASVKLTCTLSSGHSSYAIAWHQQQPEKGPRYLMKLNTDGSHSKGDGIPDRFSGSSSGAERYLTISSLQSEDEADYYCQTWGTGILVFGGGTKLTVL
notes: copies: 2 + 2
With B2, in the assay with SARS-CoV-2 WA1 RBD [2], binding was characterised by a dissociation constant (Kd) of 190 pM, the koff is 3.5e-05 s⁻¹ and the kon was 180000 M⁻¹ s⁻¹.

B3: HSW-1 IgG (antibody, V domains shown)
VH: QVQLQQPGAELVKPGTSMKLSCKASGYTFTSYWMHWVKQRPGQGLEWIGMIHPNSGSTKYNENFKSKATLTVDKSSSTAYMQFSSLTSEDSAVYYCVRSGSYYGTTYDYFDYWGQGTTLTVSS
VL: DIVLTQSPASLAVSLGQRATISCRASESVNIYGNSFMHWYQQKPGQPPKLLIFRASNLESGIPVRFSGSGSRTDFTLTINPVEADDVATYYCHQSNEDPFTFGSGTKLEIK
notes: copies: 2 + 2
Consider B3, for which the binding result in the assay with SARS-CoV-2 WA1 RBD [1] was “binds”.

B4: M8a-34 IgG (antibody, V domains shown)
VH: QVQLQQPGAELVKPGASVKMSCKASGYTFITYWITWVKQRPGQGLEWIGDIYPGGGRTNYNEKFKSKATLTVDTSSSTAYMQLRSLTSEDSAVYYCARYDGNYVGYYYAMDYWGQGTSVTVSS
VL: DIVLTQSPVSLAVSLGQRATISCRASESVDFYGNSFIYWYQQKPGQAPKLLIYRASNLESGIPARFSGSGSRTDFTLTIHPVEADDVATYYCQQSIEDPRTFGGGTKLEIK
notes: copies: 2 + 2
For B4, the binding result with Yun11-CoV RBD, with Rf1-CoV RBD and with SARS-CoV-2 WA1 RBD [1] was “binds” each time.

B5: M8a-34 Fab (Fab, V domains shown)
VH: B4 VH
VL: B4 VL
Consider B5, for which the binding result in assay [3] is given as “binds”.

B6: M8a-28 IgG (antibody, V domains shown)
VH: QVQLQQPGAELVKPGASVKMSCKASGYNFNHYWISWVKQRPGQGLEWIGDIYPLSHFTTYNEKFTNRATLTVDTSSTTAYMQLNSLTSDDSAVFYCARWDYFDSRTFDYWGQGTTLTVSS
VL: DILLTQFPAILSVSPGERVSFSCRASQTIGTNIHWYQQRINGSPRLLIKYASESISGIPSRFSGSGSGTDFSLSINNVESEDIADYYCQQINSWPLTFGAGTKLDLK
notes: copies: 2 + 2
For the molecule B6, the binding result with SARS-CoV-2 WA1 RBD [1] is on record as “binds”.

B7: HSW-2 Fab (Fab, V domains shown)
VH: QVQLQQSGPELVKPGASVKISCKASGYVFSTSWMSWVKQRPGEGPEWIGRIYPRDGHSSSTGKFKDKATLTADKSSNTAYIHLSSLTSEDSAVYFCARDYGYYYFDYWGQGTTLTVSS
VL: DIQMTQSPASLSASVGEAVTITCRLSENVYSFLAWYQQKQGKSPQLLVYRAKTLAEGVPSRFSGSGSGTQFSLKINSLQPEDFGTYYCQHHYGTPPTFGGGTKLEIK
For B7, the binding result in assay [3] is reported as “binds”.

B8: HSW-2 IgG (antibody, V domains shown)
VH: B7 VH
VL: B7 VL
notes: copies: 2 + 2
Regarding B8, in the assay with SARS-CoV-2 WA1 RBD [1], the binding result is “binds”.

B9: M8a-6 IgG (antibody, V domains shown)
VH: QVQLQQPGTELVMPGASVKLSCKTSGYTFTHYWMHWVKQRPGEGLEWIGEIAPSDNYVKYNQKFKGKSTLSVDRSSSTAYMQLSSLTSEDSAVYFCARPDNSGYPVYFDYWGQGTSLTVSS
VL: DIVMTQSQKFMSTSLGDRVSISCKASQDVGTTVAWYQQKPGQSPKLLIYWASTRHTGVPDRFTGTGSGTDYTLTISSVAAEDLALYYCQQHYNTPYTFGGGTKLEIE
notes: copies: 2 + 2
B9 yielded a Kd with SARS-CoV-2 WA1 RBD [2] of 104000 pM.

B10: M8a-6 Fab (Fab, V domains shown)
VH: B9 VH
VL: B9 VL
notes: source: Expi293 cells, transient transfection, purified (Ni-NTA, SEC)
As to B10, the binding result in assay [3] is on record as “binds”.

B11: M8a-3 IgG (antibody, V domains shown)
VH: QVQLQQPGAELVLPGASVKLSCKASGYTFTNYWMHWVKQRPGHGLEWIGEIDPFDTYIKINQKFKGKSTLTVDTSSSTAYMQLSSLTSEDSAVYYCARPDSSGYPVYFDYWGQGTTLTVSS
VL: DIVMTQSHKFMSTSVGDRVSITCKASQDVGTYIAWYQQKPGQSPKLLIYWASTRHTGVPDRFTGSGSGTNYTLTISSVQAEDLALYHCQQHYSTPYTFGGGTKLEIK
notes: copies: 2 + 2
Turning to B11, in the assay with SARS-CoV-2 WA1 RBD [2], the Kd is 860 pM, the koff came out at 0.00016 s⁻¹ and the kon amounted to 190000 M⁻¹ s⁻¹.

B12: M8a-3 IgG (antibody, V domains shown)
VH: B11 VH
VL: B11 VL
notes: copies: 2 + 2
For B12, the binding result in the assay with Yun11-CoV RBD is “binds”.
